The record followed here is the FLAb antibody collection (doi:10.1101/2023.12.08.570889).

One may read the Kd as the constant that tells how readily two partners part at equilibrium. Read a high Kd as lower affinity.

First the molecules themselves.
B1: unnamed (protein)
chain 1: EVQLLESGGGLVQPGGSLRLSCAASGFTFSQYGMDWVRQAPGKGLEWVSGIGPSGGSTVYADSVKGRFTISRDNSKNTLYLQMNSLRAEDTAVYYCTRDGPWYYYGFDVWGQGTTVTVSS
chain 2: DIQMTQSPSSLSASVGDRVTITCQASQDISNYLNWYQQKPGKAPKLLIYDASNLETGVPSRFSGSGSGTDFTFTISSLQPEDIATYYCQQADSFPVTFGGGTKVEIK
B2: unnamed (protein)
chain 1: B1 chain 1 with D99G, W102S, G106A
chain 2: B1 chain 2
B3: unnamed (protein)
chain 1: QVQLVQSGAEVKKPGASVKVSCKASGYIFSNYWIQWVRQAPGQGLEWMGEILPGSGSTEYTENFKDRVTMTRDTSTSTVYMELSSLRSEDTAVYYCARLYYGDTPIIYFDYWGQGTLVTVSS
chain 2: DIQMTQSPSSLSASVGDRVTITCGASENIYGALNWYQQKPGKAPKLLIYGATNLADGVPSRFSGSGSGTDFTLTISSLQPEDFATYYCQNVLNTPLTFGQGTKVEIK
B4: unnamed (protein)
chain 1: B3 chain 1 with I28T, S30T, N31S, L52H, S57Y, L99Y, Y100R
chain 2: B3 chain 2
B5: unnamed (protein)
chain 1: B3 chain 1 with L99Y, I106Y
chain 2: B3 chain 2
B6: unnamed (protein)
chain 1: B3 chain 1 with I28T, S30T, N31S, L52K, S57Y, L99H, Y100E
chain 2: B3 chain 2
B7: unnamed (protein)
chain 1: B3 chain 1 with I28T, S30T, N31S, L52K, S57Y, L99Y, Y100R
chain 2: B3 chain 2
B8: unnamed (protein)
chain 1: B3 chain 1 with L99Y
chain 2: B3 chain 2
B9: unnamed (protein)
chain 1: B3 chain 1 with I28T, S30T, N31S, L52H, S57Y, L99Y, I106Y
chain 2: B3 chain 2
B10: unnamed (protein)
chain 1: B3 chain 1 with I28T, S30T, N31S, L52Q, S57Y, L99Y, Y100R
chain 2: B3 chain 2
B11: unnamed (protein)
chain 1: B3 chain 1 with I28T, S30T, N31S, L52H, S57Y, Y100R
chain 2: B3 chain 2
B12: unnamed (protein)
chain 1: B3 chain 1 with L99Y, Y100E, I106Y
chain 2: B3 chain 2
B13: unnamed (protein)
chain 1: B3 chain 1 with L99H, I106D
chain 2: B3 chain 2
B14: unnamed (protein)
chain 1: B3 chain 1 with I28T, S30T, N31S, L52H, S57E, L99Y, Y100R, I106Y
chain 2: B3 chain 2
B15: unnamed (protein)
chain 1: B3 chain 1 with L99Y, Y100E
chain 2: B3 chain 2
B16: unnamed (protein)
chain 1: B3 chain 1 with Y100R, I106Y
chain 2: B3 chain 2
B17: unnamed (protein)
chain 1: B3 chain 1 with I28T, S30T, N31S, L52H, S57Y, L99Y, Y100R, I106F
chain 2: B3 chain 2
B18: unnamed (protein)
chain 1: B3 chain 1 with I28T, S30T, N31S, L52H, S57Y, L99Y, Y100R, I106D
chain 2: B3 chain 2
B19: unnamed (protein)
chain 1: B3 chain 1 with I28T, S30T, N31S, L52H, S57E, L99Y, Y100R
chain 2: B3 chain 2

Residue numbers refer to the chain shown, from its start.

One assay has as its target FXI. The assay is described as follows: Kd (SPR).
B1: the Kd amounted to 46 nM.

B2 showed a Kd of 1370 nM.

Another assay deals with C5, P01031. As to the kind of experiment: Kd (SPR).
As to B3, the Kd is 324 nM.

The molecule B4 displayed a Kd of 2300 nM.

As to B5, the Kd was 127 nM.

For the molecule B6, the Kd is 293 nM.

As for B7, the Kd is 507 nM.

In turn, B8 gave a Kd of 126 nM.

B9: the Kd came out at 267 nM.

The molecule B10 came in with a Kd of 622 nM.

As to B11, the Kd amounted to 3600 nM.

The molecule B12 gave a Kd of 915 nM.

On to B13, for which the dissociation constant (Kd) came to 1700 nM.

On to B14, for which the equilibrium dissociation constant (Kd) turned out to be 399 nM.

B15 gave a Kd of 275 nM.

The molecule B16 gave a Kd of 2510 nM.

B17 returned a Kd of 1190 nM.

Take B18: the Kd was determined as 597 nM.

B19 gave a Kd of 251 nM.
